US20180044434A1 (PUBLIC UNIVERSITY CORPORATION YOKOHAMA CITY UNIVERSITY, published 2018)

T1: Ala mutant of TA0096, SEQ ID NO: 29
T1 peptide: EEAMDDQWMQDEMEIGY

T2: Ala mutant having 3-amino acid substitution, SEQ ID NO: 45
T2 peptide: EENAAAQWMQDEMEIGY

T3: Ala mutant of TA0096, SEQ ID NO: 38
T3 peptide: EENMDDQWMQDAMEIGY

T4: Ala mutant having 3-amino acid substitution, SEQ ID NO: 47
T4 peptide: EENMDDQWMAAAMEIGY

T5: Ala mutant of TA0096, SEQ ID NO: 40
T5 peptide: EENMDDQWMQDEMAIGY

T6: Ala mutant of TA0096, SEQ ID NO: 42
T6 peptide: EENMDDQWMQDEMEIAY

T7: Ala mutant of TA0096, SEQ ID NO: 30
T7 peptide: EENADDQWMQDEMEIGY

T8: Ala mutant having 3-amino acid substitution, SEQ ID NO: 49
T8 peptide: EENMDDQWMQDEMEIAA

T9: Ala mutant of TA0096, SEQ ID NO: 36
T9 peptide: EENMDDQWMADEMEIGY

T10: Ala mutant of TA0096, SEQ ID NO: 37
T10 peptide: EENMDDQWMQAEMEIGY

T11: Ala mutant of TA0096, SEQ ID NO: 39
T11 peptide: EENMDDQWMQDEAEIGY

T12: Ala mutant of TA0096, SEQ ID NO: 43
T12 peptide: EENMDDQWMQDEMEIGA

T13: Ala mutant having 3-amino acid substitution, SEQ ID NO: 48
T13 peptide: EENMDDQWMQDEAAAGY

T14: Ala mutant of TA0096, SEQ ID NO: 33
T14 peptide: EENMDDAWMQDEMEIGY

T15: Ala mutant of TA0096, SEQ ID NO: 41
T15 peptide: EENMDDQWMQDEMEAGY

T16: Ala mutant of TA0096, SEQ ID NO: 28
T16 peptide: EANMDDQWMQDEMEIGY

T17: Ala mutant of TA0096, SEQ ID NO: 35
T17 peptide: EENMDDQWAQDEMEIGY

T18: Ala mutant of TA0096, SEQ ID NO: 31
T18 peptide: EENMADQWMQDEMEIGY

T19: Ala mutant of TA0096, SEQ ID NO: 34
T19 peptide: EENMDDQAMQDEMEIGY

T20: Ala mutant of TA0096, SEQ ID NO: 27
T20 peptide: AENMDDQWMQDEMEIGY

T21: Ala mutant having 3-amino acid substitution, SEQ ID NO: 44
T21 peptide: AAAMDDQWMQDEMEIGY

T22: TA0096 (peptide antigen corresponding to positions 340 to 356 of PAD4)
T22 peptide: EENMDDQWMQDEMEIGY


Columns and labels:
[1] = target: T23, full-length recombinant human PAD4 (human, UniProt Q9UM07 1-663); experiment: ELISA, coated human PAD4; antibody 0.0625 ug/mL
T23 construct: Full-length recombinant; also called peptidylarginine deiminase 4

[2] = target: T23, full-length recombinant human PAD4; experiment: ELISA, coated human PAD4; antibody 0.0039063 ug/mL
[3] = target: T23, full-length recombinant human PAD4; experiment: SPR (Biacore T200), antibody captured, human PAD4 analyte
Procedure: Biacore (GE Healthcare, Biacore T200) was carried out to evaluate the affinity of A11 etc., toward human PAD4. A Mouse Antibody Capture kit (GE Healthcare, BR-1008-38) was used for the affinity assay. Specifically, in accordance with the standard protocol provided by the manufacture, NHS/EDC was used and an amine coupling method, in which a free carboxyl group is fixed on a surface of a CM5 chip, was used to immobilize a rabbit anti-mouse polyclonal antibody on the surface of a CM5 chip. Next, A11 etc., were each captured by the rabbit anti-mouse polyclonal antibody. L207 was likewise captured. Then, human PAD4 at each concentration was subjected to Biacore T200 measurement to create a kinetic sensorgram.

[4] = target: full-length recombinant human or mouse PAD4 (species used for Table 7 and FIG. 7 not stated); experiment: cell-based or functional assay
[5] = target: T24, full-length recombinant mouse PAD4 (mouse, UniProt Q9Z183 1-666); experiment: ELISA, coated mouse PAD4; antibody 0.25 ug/mL
T24 construct: mature; Full-length recombinant

[6] = target: T24, full-length recombinant mouse PAD4; experiment: ELISA, coated mouse PAD4; antibody 6.104E-05 ug/mL
[7] = target: T24, full-length recombinant mouse PAD4; experiment: ELISA, coated mouse PAD4; antibody 0.015625 ug/mL
[8] = target: T24, full-length recombinant mouse PAD4; experiment: ELISA, coated mouse PAD4; antibody 1 ug/mL
[9] = target: T1, Ala mutant of TA0096, SEQ ID NO: 29; experiment: ELISA, coated peptide
[10] = target: T2, Ala mutant having 3-amino acid …; experiment: ELISA, coated peptide
[11] = target: T3, Ala mutant of TA0096, SEQ ID NO: 38; experiment: ELISA, coated peptide
[12] = target: T4, Ala mutant having 3-amino acid …; experiment: ELISA, coated peptide
[13] = target: T5, Ala mutant of TA0096, SEQ ID NO: 40; experiment: ELISA, coated peptide
[14] = target: T6, Ala mutant of TA0096, SEQ ID NO: 42; experiment: ELISA, coated peptide
[15] = target: T7, Ala mutant of TA0096, SEQ ID NO: 30; experiment: ELISA, coated peptide
[16] = target: T8, Ala mutant having 3-amino acid …; experiment: ELISA, coated peptide
[17] = target: T9, Ala mutant of TA0096, SEQ ID NO: 36; experiment: ELISA, coated peptide
[18] = target: T10, Ala mutant of TA0096, SEQ ID NO: 37; experiment: ELISA, coated peptide
[19] = target: T11, Ala mutant of TA0096, SEQ ID NO: 39; experiment: ELISA, coated peptide
[20] = target: T12, Ala mutant of TA0096, SEQ ID NO: 43; experiment: ELISA, coated peptide
[21] = target: T13, Ala mutant having 3-amino acid …; experiment: ELISA, coated peptide
[22] = target: T14, Ala mutant of TA0096, SEQ ID NO: 33; experiment: ELISA, coated peptide
[23] = target: T15, Ala mutant of TA0096, SEQ ID NO: 41; experiment: ELISA, coated peptide
[24] = target: T16, Ala mutant of TA0096, SEQ ID NO: 28; experiment: ELISA, coated peptide
[25] = target: T17, Ala mutant of TA0096, SEQ ID NO: 35; experiment: ELISA, coated peptide
[26] = target: T18, Ala mutant of TA0096, SEQ ID NO: 31; experiment: ELISA, coated peptide
[27] = target: T19, Ala mutant of TA0096, SEQ ID NO: 34; experiment: ELISA, coated peptide
[28] = target: T20, Ala mutant of TA0096, SEQ ID NO: 27; experiment: ELISA, coated peptide
[29] = target: T21, Ala mutant having 3-amino acid …; experiment: ELISA, coated peptide
[30] = target: T22, TA0096 (peptide antigen corresponding …); experiment: ELISA, coated peptide
[31] = target: T24, full-length recombinant mouse PAD4; experiment: ELISA, coated mouse PAD4; antibody 0.0002441 ug/mL

T24 sequence (Q9Z183 whole entry): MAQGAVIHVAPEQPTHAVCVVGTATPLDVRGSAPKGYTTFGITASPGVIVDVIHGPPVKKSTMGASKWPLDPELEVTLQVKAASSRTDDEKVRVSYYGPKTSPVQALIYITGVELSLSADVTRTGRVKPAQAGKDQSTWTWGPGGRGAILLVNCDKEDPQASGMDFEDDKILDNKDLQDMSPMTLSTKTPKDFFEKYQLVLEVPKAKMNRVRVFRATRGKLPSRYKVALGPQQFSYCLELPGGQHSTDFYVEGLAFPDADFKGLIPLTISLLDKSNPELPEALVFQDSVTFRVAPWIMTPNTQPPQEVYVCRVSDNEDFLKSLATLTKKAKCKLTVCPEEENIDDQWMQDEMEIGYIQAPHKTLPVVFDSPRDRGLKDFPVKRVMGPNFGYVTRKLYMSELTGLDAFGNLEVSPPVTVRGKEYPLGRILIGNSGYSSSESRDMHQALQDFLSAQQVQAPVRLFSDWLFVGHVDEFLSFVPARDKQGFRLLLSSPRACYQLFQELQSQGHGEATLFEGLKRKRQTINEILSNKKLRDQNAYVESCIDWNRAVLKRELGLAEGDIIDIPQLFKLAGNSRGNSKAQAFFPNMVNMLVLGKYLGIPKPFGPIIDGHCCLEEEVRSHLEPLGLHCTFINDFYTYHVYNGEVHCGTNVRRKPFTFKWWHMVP
T23 sequence (Q9UM07 whole entry): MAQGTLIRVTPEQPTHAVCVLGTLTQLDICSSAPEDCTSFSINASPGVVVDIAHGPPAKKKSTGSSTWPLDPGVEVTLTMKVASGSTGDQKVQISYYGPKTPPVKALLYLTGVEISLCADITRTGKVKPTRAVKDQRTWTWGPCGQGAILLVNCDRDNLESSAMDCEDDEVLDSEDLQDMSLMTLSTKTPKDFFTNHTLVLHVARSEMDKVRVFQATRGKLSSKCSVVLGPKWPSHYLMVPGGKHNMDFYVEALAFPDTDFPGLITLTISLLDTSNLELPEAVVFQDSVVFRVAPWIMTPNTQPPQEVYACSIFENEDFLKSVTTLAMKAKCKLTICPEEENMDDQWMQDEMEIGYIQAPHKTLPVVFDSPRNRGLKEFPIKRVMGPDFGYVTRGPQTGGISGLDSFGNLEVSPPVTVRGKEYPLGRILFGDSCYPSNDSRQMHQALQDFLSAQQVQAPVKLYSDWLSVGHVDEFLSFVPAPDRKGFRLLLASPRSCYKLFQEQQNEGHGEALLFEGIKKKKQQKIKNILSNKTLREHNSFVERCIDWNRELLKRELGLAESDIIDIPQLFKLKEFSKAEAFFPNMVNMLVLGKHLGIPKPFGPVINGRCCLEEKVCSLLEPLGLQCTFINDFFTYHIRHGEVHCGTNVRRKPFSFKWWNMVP

OD 490/630 nm [1] | OD 490/630 nm [2] | Kd [3] [nM] | koff [3] [s⁻¹] | kon [3] [M⁻¹ s⁻¹] | Relative citrullination activity [4] | OD 490/630 nm [5] | OD 490/630 nm [6] | OD 490/630 nm [7] | OD 490/630 nm [8] | OD 490/630 nm [9] | OD 490/630 nm [10] | OD 490/630 nm [11] | OD 490/630 nm [12] | OD 490/630 nm [13] | OD 490/630 nm [14] | OD 490/630 nm [15] | OD 490/630 nm [16] | OD 490/630 nm [17] | OD 490/630 nm [18] | Binder | also measured
2.12 | 1.34 | 2.34 | 0.000243 | 104000 | 63 relative to PBS = 100 | 2.25 | 0.122 | 2.25 | 2.26 | 1.91 | 0.065 | 1.91 | 1.86 | 1.89 | 1.86 | 1.93 | 1.86 | 1.92 | 1.88 | G8 (antibody, V domains shown, Chicken variable regions in a mouse chimeric antibody (IgG1); also called anti-PAD4 antibody G8) VH: AVTLDESGGGLQTPGGALSLVCKASGFTFSTYAMGWMRQAPGKGLEYVAAIRNDGSWTGYGAAVKGRATILRDNGQSTVRLQLSNLRAEDTGTYYCAKYTGSSGGSIGAWGHGTEVIVS VL: ASTQPSSVSANLGGTVEITCSGGNRNYYYGWYQQKSPGSAPVTLIYANDKRPSNIPSRFSGSKSGSTGTLTITGVQAEDEAVYFCGTADTGKYVFGAGTTLTVL | OD 490/630 nm [19]: 1.88; OD 490/630 nm [20]: 1.92; OD 490/630 nm [21]: 1.88; OD 490/630 nm [22]: 1.98; OD 490/630 nm [23]: 1.85; OD 490/630 nm [24]: 1.94; OD 490/630 nm [25]: 0.233; OD 490/630 nm [26]: 1.85; OD 490/630 nm [27]: 0.04; OD 490/630 nm [28]: 1.96; OD 490/630 nm [29]: 1.9; OD 490/630 nm [30]: 1.88; OD 490/630 nm [31]: 0.205
2.12 | 1.35 | 7.56 | 0.000791 | 105000 | 35 relative to PBS = 100 | 2.31 | 0.103 | 2.26 | 2.3 | 1.9 | 0.016 | 1.99 | 1.67 | 1.86 | 1.85 | 1.95 | 1.86 | 1.87 | 1.86 | H7 (antibody, V domains shown, Chicken variable regions in a mouse chimeric antibody (IgG1); also called anti-PAD4 antibody H7) VH: AVTLDESGGGLQTPGGALSLVCKASGFTFSTYAMGWMRQAPGKGLEYVAAIRNDGSWTGYGAAVKGRATILRDNGQSTVRLQLSNLRAEDTGTYYCAKYTGSSGGSIGAWGHGTEVIVS VL: ASTQPSSVSANPGGTVEITCSGGSGRYYYGWYQQKSPGSAPVTVIYSSTHRPSNIPSRFSGSKSGSTATLTITGVQAEDEAVYFCGTADSSSYVFGAGTTLTVL | OD 490/630 nm [19]: 1.81; OD 490/630 nm [20]: 1.87; OD 490/630 nm [21]: 1.87; OD 490/630 nm [22]: 1.87; OD 490/630 nm [23]: 1.83; OD 490/630 nm [24]: 1.95; OD 490/630 nm [25]: 0.065; OD 490/630 nm [26]: 0.462; OD 490/630 nm [27]: 0.066; OD 490/630 nm [28]: 1.9; OD 490/630 nm [29]: 1.9; OD 490/630 nm [30]: 1.82; OD 490/630 nm [31]: 0.224
